Laboratory results: publication PMC5170866 (Molecular Biology of the Cell, 2016)

Target: Recombinant His-tagged CYFIP2-N (aa 1–624) (mouse, UniProt Q5SQX6 1-624)
Assay: pull-down

Chain of Recombinant His-tagged CYFIP2-N (aa 1–624) (Q5SQX6 1-624): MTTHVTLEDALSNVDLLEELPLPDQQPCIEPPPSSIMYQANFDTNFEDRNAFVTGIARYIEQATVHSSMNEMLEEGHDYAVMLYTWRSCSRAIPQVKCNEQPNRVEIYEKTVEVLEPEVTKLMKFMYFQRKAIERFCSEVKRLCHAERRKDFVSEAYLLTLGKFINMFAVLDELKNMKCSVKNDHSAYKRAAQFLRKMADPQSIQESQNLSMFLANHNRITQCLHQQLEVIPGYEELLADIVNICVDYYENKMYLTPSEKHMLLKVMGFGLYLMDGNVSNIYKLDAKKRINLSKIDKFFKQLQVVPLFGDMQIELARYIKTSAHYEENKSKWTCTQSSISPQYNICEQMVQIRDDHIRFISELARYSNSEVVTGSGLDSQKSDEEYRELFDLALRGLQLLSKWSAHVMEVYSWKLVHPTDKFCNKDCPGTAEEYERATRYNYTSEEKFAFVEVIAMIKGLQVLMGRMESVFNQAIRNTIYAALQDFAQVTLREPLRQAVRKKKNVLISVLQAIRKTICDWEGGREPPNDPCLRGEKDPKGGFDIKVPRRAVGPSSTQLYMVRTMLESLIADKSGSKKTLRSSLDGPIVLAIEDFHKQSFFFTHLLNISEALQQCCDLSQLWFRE

B1: C-terminus of retrolinkin (RTLN-C, aa 489–574) fused to GST (domain or fragment, mouse, UniProt Q8BHE4 489-574, looked up)
chain: CCMRRKKKTANPENNLSYWNNAITMDYFNRHAVELPREIQSLETSEDQLSEPRSPANGDYRDTGMVLVNPFCQETLFVGNDQVSEI
  binding result: binds
